Consider one substance from publication PMC9554601.

The target in this experiment is stabilized SARS-CoV-2 spike protein trimer (S-6P) (SARS-CoV-2) (UniProt P0DTC2). The experiment is described as follows: cryo-EM structure.

Consider “stabilized SARS-CoV-2 spike protein trimer (S-6P) (from UniProt P0DTC2)”, for which the stoichiometry N was found to be 3.
